The values that follow come from article doi:10.1101/2021.08.07.455519 (bioRxiv, 2021).

The target in the test is BG505 UFO trimer (HIV-1 strain BG505, UniProt Q2N0S6, stabilised). Put plainly: BLI. Background: In BLI a coated tip is dipped into the sample, and binding shifts an interference pattern.

B1: intermediate antibody IA5 of the J038 lineage (antibody, V domains shown)
VH: QLRLQESGPGLVKPSETLSLNCAVSGGSISDAYWSWIRQSPGRGLEWIGRISGRDGYTDYNPSLTSRVTISTDRSKTQVSLRLTSVTAADTAVYFCAREVAEDDYGYYQPYFDSWGQGVLVTVSS
VL: DIQMTQSPSSVSASVGDRVTITCRSSQGIDTDLAWYQHTPGKAPKLLIYHSCGLQSGVPSRFSGSGSGTDFTLTISSLQPEDFATYYCQQYKSLPLTFGGGTKVEVK
For the molecule B1, the binding result was “binds”.
